Laboratory results taken from US20160009800A1 (XOMA US, published 2016).

Key:
human insulin receptor [1] = target: T1, human insulin receptor (human, UniProt P06213 28-1382); assay: FACS, serum-starved CHO-K1 cells expressing human INSR, no insulin
T1 construct: whole, on cells; Uncomplexed receptor on serum-starved cells (CHOK1 transfectants or IM-9); also called hINSR; INSR
Description: (§1) Twenty five microliter aliquots of cells were plated into 96 well plates, mixed with 25 ul of antibody or PPE and incubated on ice for 1 h.
(§2) The cells were then washed once with FACS buffer and the binding of the antibody was detected by the addition of 25 ul of an appropriate fluorochrome-conjugated secondary antibody. […] After a final 15 min incubation on ice the cells were washed and the pellets resuspended in FACS buffer. The cells were analyzed on a FACSCAN™ (Becton-Dickinson, Milipitas, Calif.) and the data analyzed in both FLOWJO™ (Treestar, Ashland, Oreg.) and Microsoft Excel™.

human insulin receptor [2] = target: T1, human insulin receptor; assay: cell-based or functional assay
[3] = target: T2, human insulin receptor complexed with human insulin (human, UniProt P06213 28-1382; P01308 25-54; P01308 90-110); assay: FACS, serum-starved CHO-K1 cells expressing human INSR, with insulin
T2 construct: whole, on cells;mature; also called hINSR-hINS complex; INS/INSR complex
Description: as §1, §2

human insulin receptor [4] = target: T1, human insulin receptor; assay: KinExA antibody depletion by hINSR8-CHOK1 cells, without insulin
Description: (§3) Beads were rotated at room temperature for 6 hours then allowed to settle. Supernatant was replaced with PBS with 50 mg/mL BSA Fraction V (Sigma-Aldrich, St. Louis, Mo.) and rotated overnight at 4° C. […] On the KinExA 3000 the sample was injected at 0.25 mL/minute for 240 seconds, then rinsed for 60 seconds in running buffer (PBS with 0.05% sodium azide), then 240 seconds of the detection solution was injected, followed by a final 90 second wash at 1 mL/minute. The difference in voltage from an early initial time-point and a time point near the end of the run was measured and used to calculate affinities. The INSR concentration on the cells was estimated at 2.5×10⁵ receptors/cell. Affinity was determined using the KinExA software (Sāpidyne, Boise Id.) and EC50's were calculated by non-linear fit in Prism (GraphPad Software, La Jolla Calif.).
(§4) Samples were incubated overnight at 4° C. for 18 hours then centrifuged to pellet cells and supernatants were removed for testing on the KinExA. […] Detection solution used was R-PE-(Fab′)2 fragment goat anti-Human IgG(H+L) (Jackson Immuno Research, West Grove Pa.).

[5] = target: T2, human insulin receptor complexed with …; assay: FACS, CHO-K1 human INSR cells, signal with insulin divided by signal without insulin
[6] = target: T2, human insulin receptor complexed with …; assay: KinExA antibody depletion by hINSR8-CHOK1 cells, with 175 nM insulin
Description: as §3, §4

mouse insulin receptor [7] = target: T3, mouse insulin receptor (mouse, UniProt P15208 28-1372); assay: FACS, serum-starved CHO-K1 cells expressing mouse INSR, no insulin
T3 construct: whole, on cells; also called muINSR; mINSR

[8] = target: T4, mouse insulin receptor complexed with human insulin (mouse; human, UniProt P15208 28-1372; P01308 25-54; P01308 90-110); assay: FACS, CHO-K1 mouse INSR cells, signal with insulin divided by signal without insulin
T4 construct: whole, on cells;mature; also called muINSR/hINS complex

human insulin receptor [9] = target: T1, human insulin receptor; assay: cell-based or functional assay; remark: listed apart in the source
mouse insulin receptor [10] = target: T3, mouse insulin receptor; assay: cell-based or functional assay
[11] = target: T4, mouse insulin receptor complexed with …; assay: FACS, serum-starved CHO-K1 cells expressing mouse INSR, with insulin
Description: as §1, §2

[12] = target: T2, human insulin receptor complexed with …; assay: KinExA, affinity with insulin against affinity without insulin
Description: as §3, §4

mouse insulin receptor [13] = target: T3, mouse insulin receptor; assay: FACS on mouse INSR; conditions not given on the sheet [cont'd]
mouse insulin receptor [14] = target: T3, mouse insulin receptor; assay: flow cytometry, biotinylated IgG on mINSR-CHOK1 cells
[15] = target: T4, mouse insulin receptor complexed with …; assay: FACS, serum-starved CHO-K1 cells expressing mouse INSR, with insulin [cont'd]
Description: as §1, §2

human insulin receptor [16] = target: T1, human insulin receptor; assay: FACS, serum-starved CHO-K1 cells expressing human INSR, no insulin [cont'd]
Description: as §1, §2

human insulin receptor [17] = target: T1, human insulin receptor; assay: cell-based or functional assay; remark: listed apart in the source
[18] = target: T2, human insulin receptor complexed with …; assay: FACS, CHO-K1 human INSR cells, signal with insulin divided by signal without insulin [cont'd]
Description: as §1, §2

[19] = target: T4, mouse insulin receptor complexed with …; assay: FACS, CHO-K1 mouse INSR cells, signal with insulin divided by signal without insulin [cont'd]
Description: as §1, §2

mouse insulin receptor [20] = target: T3, mouse insulin receptor; assay: FACS, serum-starved CHO-K1 cells expressing mouse INSR, no insulin [cont'd]
Description: as §1, §2

[21] = target: T2, human insulin receptor complexed with …; assay: FACS, serum-starved CHO-K1 cells expressing human INSR, with insulin [cont'd]
Description: as §1, §2

human insulin receptor [22] = target: T1, human insulin receptor; assay: cell-based or functional assay; remark: listed apart in the source
mouse insulin receptor [23] = target: T3, mouse insulin receptor; assay: cell-based or functional assay; remark: listed apart in the source
human insulin receptor [24] = target: T1, human insulin receptor; assay: cell-based or functional assay; remark: listed apart in the source
mouse insulin receptor [25] = target: T3, mouse insulin receptor; assay: cell-based or functional assay; remark: listed apart in the source

B1: Ab062 (antibody, IgG2, V domains shown)
VH: QVQLQQWGAGLLKPSETLSLTCAVYGGSFSGYYWSWIRQPPGKGLEWIGEINHSGSTNYNPSLKSRVTISVDTSKNQFSLKLSSVTAADTAVYYCARGPSGWYIREFDYWGQGTLVTVSS
VL: QSVLTQPPSVSGAPGQRVTISCTGSSSNIGAGYDVHWYQQLPGTAPKLLIYGNSNRPSGVPDRFSGSKSGTSASLAITGLQAEDEADYYCQSYDSSLSGSGVFGGGTKVTVL
notes: also called XPA.015.211
FACS area under log transformed data MFI (human insulin receptor [1]): 1400
fold rise of insulin EC50 (pAkt) in the presence of Ab062 (human insulin receptor [2]): 6.6 fold
FACS area under log transformed data MFI [3]: 790
Kd (human insulin receptor [4]): 0.124 nM
FACS area under log transformed data MFI ratio (+insulin/-insulin) [5]: 0.57
Kd [6]: 0.108 nM
FACS area under log transformed data MFI (mouse insulin receptor [7]): 1450
FACS area under log transformed data MFI ratio (+insulin/-insulin) [8]: 0.7
EC50 of pAkt activation without insulin, human INSR CHO-K1 cells (human insulin receptor [9]): 2.43 nM
relative maximum pAkt activation without insulin, human INSR CHO-K1 cells (human insulin receptor [9]): 52%
EC50 of pAkt activation without insulin, mouse INSR CHO-K1 cells (mouse insulin receptor [10]): 1.1 nM
relative maximum pAkt activation without insulin, mouse INSR CHO-K1 cells (mouse insulin receptor [10]): 34%
FACS area under log transformed data MFI [11]: 1010
Fold Improvement with Insulin [12]: 1.1 fold

B2: Ab047 (antibody, V domains shown)
VH: EVQLLESGGGLVQPGGSLRLSCAASGFTFSSYAMSWVRQAPGKGLEWVSSISGGSTYYADSRKGRFTISRDNSKNTLYLQMNSLRAEDTAVYYCARHADQWPGSWFDPWGQGTLVTVSS
VL: QSVLTQPPSASGTPGQRVTISCSGSSSNIGSNTVNWYQQLPGTAPKLLIYDNNKRPSGVPDRFSGSKSGTSASLAISGLRSEDEADYYCQSYDSSLSGWEVFGGGTKLTVLG
notes: also called XPA.015.121
binding result (mouse insulin receptor [13]): no binding

B3: Ab004 (antibody, V domains shown)
VH: EVQLLESGGGLVQPGGSLRLSCAASGFTFRNFAMMWVRQAPGKGLEWVSGISWNSGSIGYADSVKGRFTISRDNSKNTLYLQMNSLRAEDTAVYYCARPSGAYPTPFDNWGQGTLVTVSS
VL: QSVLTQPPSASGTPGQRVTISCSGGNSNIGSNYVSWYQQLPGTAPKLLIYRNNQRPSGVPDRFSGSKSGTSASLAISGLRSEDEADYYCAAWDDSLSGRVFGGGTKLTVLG
notes: Sole member of Bin 7; also called XPA.015.066
binding result (mouse insulin receptor [14]): binds

B4: Ab045 (antibody, V domains shown)
VH: EVQLLESGGGLVQPGGSLRLSCAASGFTFSSYWMSWVRQAPGKGLEWVSGISGSGGSTDYADSVKGRFTISRDNSKNTLYLQMNSLRAEDTAVYYCARELPAFWSAFDYWGQGTLVTVSF
VL: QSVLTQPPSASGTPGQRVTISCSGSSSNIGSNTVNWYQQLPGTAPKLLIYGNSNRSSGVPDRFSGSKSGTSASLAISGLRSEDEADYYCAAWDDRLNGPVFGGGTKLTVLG
notes: also called XPA.015.111
binding result (mouse insulin receptor [13]): binds

B5: Ab079 (antibody, IgG2, V domains shown)
VH: QMQLVQSGAEMKKPGASVKVSCKASGYSFSDYGITWVRQAPGQGPEWMGWISGYNGNTNYAQKFQDRVTMTTDTSTSTAYMELRSLKSDDTAVYFCARARGVWMFDNWGQGTLVTVSS
VL: AIRMTQSPSTLSASVGDRVTITCRASQSISTWLAWYQQKPGKAPKLLIYTTSTLESGVPSRFSGSRSGTEFTLTISSLQPDDFATYYCQQYNSYPLTFGGGTKVEIK
notes: also called XPA.015.245
FACS area under log transformed data MFI [15]: 215
FACS area under log transformed data MFI (human insulin receptor [16]): 296
Kd (human insulin receptor [4]): 9.6 nM
Kd [6]: 0.496 nM
pAKT assay, fold-decrease in insulin EC50 relative to isotype control Ab (human insulin receptor [17]): 6.7 fold
FACS area under log transformed data MFI ratio (+insulin/-insulin) [18]: 1.3
FACS area under log transformed data MFI ratio (+insulin/-insulin) [19]: 1.39
FACS area under log transformed data MFI (mouse insulin receptor [20]): 154
FACS area under log transformed data MFI [21]: 385
Fold Improvement with Insulin [12]: 19.4 fold
fold-change in insulin EC50 (pAkt) relative to isotype control, 10 ug/ml Ab079, human INSR CHO-K1 cells (human insulin receptor [22]): 7 fold
fold-change in insulin EC50 (pAkt) relative to isotype control, 20 ug/ml Ab079, mouse INSR CHO-K1 cells (mouse insulin receptor [23]): 8 fold

B6: Ab086 (antibody, IgG2, V domains shown)
VH: EVQLVETGGGVVRPGGSLRLSCAASGFTFGDYGMSWVRQAPGKGLEWVSGINWNGGSTGYADSVKGRFTISRDNAKNSLYLQMNSLRAEDTALYYCARDILGVEFDYWGQGTLVTVSS
VL: QSALTQPASVSGSLGQSITISCTGTSSDIGLYKFVSWYQQHPGKAPKLMIYDVSYRPSGVSNRFSGSSSGNTASLTISGLQAEDEADYYCNSYTSSSTLVVFGGGTKLTVL
notes: also called XPA.015.219
binding result (mouse insulin receptor [14]): binds

B7: Ab061 (antibody, IgG2, V domains shown)
VH: QMQLVQSGAEVKKTGESLKISCQGYGYRFTDNWIGWVRQMPGRGLEWMGIIYPGDSETRYSPSFQGQVTISADKSISTAYLEWSSLKASDTAMYYCARHAPLAVAGMALGDWGQGTLVTVSS
VL: QTVVTQEPSFSVSPGGTVTLTCGLSSGSVSTGYSPGWYQQTPGQAPRTLVYNTNTRSSGVPDRFSGSILGNKAALTITGAQADDESDYYCALYMGSGTYVFGGGTKLTVL
notes: Negative modulator; also called XPA.015.209
FACS area under log transformed data MFI (human insulin receptor [1]): 204
fold change in insulin EC50 (pAKT) relative to isotype control mAb, 10 ug/mL Ab061 (human insulin receptor [24]): 269 fold
FACS area under log transformed data MFI (mouse insulin receptor [7]): 462
FACS area under log transformed data MFI ratio (+insulin/-insulin) [8]: 0.37
FACS area under log transformed data MFI [11]: 170

B8: Ab049 (antibody, V domains shown)
VH: EVQLLESGGGLVQPGGSLRLSCAASGFTFSSNYMSWVRQAPGKGLEWVSSISGGSTYYADSRKGRFTISRDNSKNTLYLQMNSLRAEDTAVYYCARLDWSSGAFDIWGQGTLVTVSS
VL: QSVLTQPPSASGTPGQRVTISCSGRSSNIGYNYVSWYQQLPGTAPKLLIYGNSNRPSGVPDRFSGSKSGTSASLAISGLRSEDEADYYCAAWDDSLSGPVFGGGTKLTVLG
notes: also called XPA.015.165
binding result (mouse insulin receptor [13]): no binding

B9: Ab070 (antibody, IgG2, V domains shown)
VH: EVQLVQSGAEVKKPGESLKISCKGSGYSFTSYWIGWVRQMPGKGLEWMGIIYPGDSDTRYSPSFQGQVTISADKSISTSYLQWSSLRASDTAMYYCARLGSGWYGNDYWGQGTLVTVSS
VL: SSELTQDPAVSVALGQTVRITCQGDSLRSYYTSWYQQKPGQAPVLVIFGKNNRPSGIPDRFSGSSSGNTASLTITGAQAEDEADYYCNSRDSSGNYAVFGGGTQLTVL
notes: Negative modulator; also called XPA.015.226
FACS area under log transformed data MFI [15]: 389
FACS area under log transformed data MFI (human insulin receptor [16]): 283
fold change in insulin EC50 (pAKT) relative to isotype control mAb, 20 ug/mL Ab070 (human insulin receptor [24]): 17 fold
FACS area under log transformed data MFI ratio (+insulin/-insulin) [19]: 0.66
FACS area under log transformed data MFI (mouse insulin receptor [20]): 587

B10: Ab001 (antibody, V domains shown)
VH: EVQLLESGGGLVQPGGSLRLSCAASGFTFSSYEMNWVRQAPGKGLEWVSSISSSSSYIYYADSVKGRFTISRDNSKNTLYLQMNSLRAEDTAVYYCARVRWYKDSDAFDIWGQGTLVTVSS
VL: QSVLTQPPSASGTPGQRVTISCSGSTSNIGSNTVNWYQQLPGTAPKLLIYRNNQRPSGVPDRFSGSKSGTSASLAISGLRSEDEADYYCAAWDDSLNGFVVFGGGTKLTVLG
notes: Positive modulator, Bin 1; also called XPA.015.138
positive modulation of insulin-dependent signaling, pAKT assay, CHOK1 human INSR (human insulin receptor [2]): ~10 fold
positive modulation of insulin-dependent signaling, pAKT assay, CHOK1 mouse INSR (mouse insulin receptor [25]): ~10 fold
Kd (human insulin receptor [4]): 12 nM
Kd [6]: 0.116 nM
pAKT assay, fold-decrease in insulin EC50 relative to isotype control Ab (human insulin receptor [17]): 9.7 fold
Fold Improvement with Insulin [12]: 103 fold
fold-change in insulin EC50 (pAkt) relative to isotype control, 2 ug/ml Ab001, human INSR CHO-K1 cells (human insulin receptor [22]): 12 fold
fold-change in insulin EC50 (pAkt) relative to isotype control, 2 ug/ml Ab001, mouse INSR CHO-K1 cells (mouse insulin receptor [23]): 7 fold
